Data: patent US20120178908A1 (Novo Nordisk, published 2012)

T1: hTF.1-219 (soluble tissue factor)
T1 chain: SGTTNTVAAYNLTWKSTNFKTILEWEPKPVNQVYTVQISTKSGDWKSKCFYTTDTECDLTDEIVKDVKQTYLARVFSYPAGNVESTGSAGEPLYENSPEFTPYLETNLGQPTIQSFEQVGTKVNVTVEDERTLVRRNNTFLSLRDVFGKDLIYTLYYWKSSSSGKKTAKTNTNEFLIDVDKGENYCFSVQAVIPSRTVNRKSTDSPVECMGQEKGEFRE

T2: TLT-1 18-188 relipidated in 20:80 PS:PC vesicles (human) (UniProt Q86YW5)
T2 sequence: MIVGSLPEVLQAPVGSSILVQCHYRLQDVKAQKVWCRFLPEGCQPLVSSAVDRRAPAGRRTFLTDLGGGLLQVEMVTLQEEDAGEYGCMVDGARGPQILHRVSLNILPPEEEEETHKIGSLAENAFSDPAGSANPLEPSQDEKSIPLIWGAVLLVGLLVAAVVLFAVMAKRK

T3: TLT-1 receptor on the surface of activated human platelets (human) (UniProt Q86YW5)
T3 sequence: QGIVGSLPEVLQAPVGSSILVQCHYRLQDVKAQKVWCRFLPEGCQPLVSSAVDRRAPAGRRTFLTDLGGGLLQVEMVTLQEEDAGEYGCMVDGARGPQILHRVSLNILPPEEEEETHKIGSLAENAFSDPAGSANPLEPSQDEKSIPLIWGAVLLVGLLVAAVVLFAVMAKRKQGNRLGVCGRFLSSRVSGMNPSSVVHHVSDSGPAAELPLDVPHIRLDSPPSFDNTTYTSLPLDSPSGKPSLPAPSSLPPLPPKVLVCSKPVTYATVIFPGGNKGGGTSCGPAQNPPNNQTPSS


Columns and labels:
[1] = biological target: T4, GPIIbIIIa receptor on human platelets (human, UniProt P08514 32-1039; P05106 27-788); assay: cell-based or functional assay
[2] = biological target: T4, GPIIbIIIa receptor on human platelets; assay: cell-based or functional assay; remark: listed apart in the source
[3] = biological target: Fab-hTF.1-219 fusion proteins (those tested in FIG. 7)
[4] = biological target: T1, hTF.1-219 (soluble tissue factor)
[5] = biological target: mAb-hTF.1-219 fusion proteins (those tested in FIG. 7)
[6] = biological target: T2, TLT-1 18-188 relipidated in 20:80 PS:PC vesicles (human)
[7] = biological target: T3, TLT-1 receptor on the surface of activated human platelets (human)

T4 sequence (P08514 32-1039, chain 1 of 2): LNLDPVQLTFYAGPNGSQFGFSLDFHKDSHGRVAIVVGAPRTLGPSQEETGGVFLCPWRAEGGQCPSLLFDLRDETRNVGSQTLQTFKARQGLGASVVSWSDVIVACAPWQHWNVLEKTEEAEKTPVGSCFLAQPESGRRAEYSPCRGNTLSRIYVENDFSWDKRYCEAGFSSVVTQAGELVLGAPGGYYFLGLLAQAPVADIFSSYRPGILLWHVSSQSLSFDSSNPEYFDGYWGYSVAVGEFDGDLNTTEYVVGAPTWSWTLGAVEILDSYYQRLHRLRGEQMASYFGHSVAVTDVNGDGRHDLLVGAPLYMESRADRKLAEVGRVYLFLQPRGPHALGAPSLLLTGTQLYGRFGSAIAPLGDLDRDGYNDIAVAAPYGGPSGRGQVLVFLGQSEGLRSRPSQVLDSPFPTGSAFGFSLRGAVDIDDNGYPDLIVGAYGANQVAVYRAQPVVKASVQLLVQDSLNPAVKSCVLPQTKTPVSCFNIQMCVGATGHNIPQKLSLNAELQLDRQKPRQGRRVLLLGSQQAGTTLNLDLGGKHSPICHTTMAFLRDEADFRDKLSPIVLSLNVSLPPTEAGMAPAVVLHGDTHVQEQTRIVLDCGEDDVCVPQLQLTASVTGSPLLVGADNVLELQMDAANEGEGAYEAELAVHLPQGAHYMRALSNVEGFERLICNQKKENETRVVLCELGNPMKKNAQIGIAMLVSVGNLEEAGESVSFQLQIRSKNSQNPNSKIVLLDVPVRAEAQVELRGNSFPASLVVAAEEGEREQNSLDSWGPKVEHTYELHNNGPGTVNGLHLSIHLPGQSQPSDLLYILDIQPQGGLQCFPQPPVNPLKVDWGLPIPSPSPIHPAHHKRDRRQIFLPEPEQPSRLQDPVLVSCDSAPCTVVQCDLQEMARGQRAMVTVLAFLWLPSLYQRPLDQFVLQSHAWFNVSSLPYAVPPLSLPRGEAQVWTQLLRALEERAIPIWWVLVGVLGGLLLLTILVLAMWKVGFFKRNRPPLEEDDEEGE
T4 sequence (P05106 27-788, chain 2 of 2): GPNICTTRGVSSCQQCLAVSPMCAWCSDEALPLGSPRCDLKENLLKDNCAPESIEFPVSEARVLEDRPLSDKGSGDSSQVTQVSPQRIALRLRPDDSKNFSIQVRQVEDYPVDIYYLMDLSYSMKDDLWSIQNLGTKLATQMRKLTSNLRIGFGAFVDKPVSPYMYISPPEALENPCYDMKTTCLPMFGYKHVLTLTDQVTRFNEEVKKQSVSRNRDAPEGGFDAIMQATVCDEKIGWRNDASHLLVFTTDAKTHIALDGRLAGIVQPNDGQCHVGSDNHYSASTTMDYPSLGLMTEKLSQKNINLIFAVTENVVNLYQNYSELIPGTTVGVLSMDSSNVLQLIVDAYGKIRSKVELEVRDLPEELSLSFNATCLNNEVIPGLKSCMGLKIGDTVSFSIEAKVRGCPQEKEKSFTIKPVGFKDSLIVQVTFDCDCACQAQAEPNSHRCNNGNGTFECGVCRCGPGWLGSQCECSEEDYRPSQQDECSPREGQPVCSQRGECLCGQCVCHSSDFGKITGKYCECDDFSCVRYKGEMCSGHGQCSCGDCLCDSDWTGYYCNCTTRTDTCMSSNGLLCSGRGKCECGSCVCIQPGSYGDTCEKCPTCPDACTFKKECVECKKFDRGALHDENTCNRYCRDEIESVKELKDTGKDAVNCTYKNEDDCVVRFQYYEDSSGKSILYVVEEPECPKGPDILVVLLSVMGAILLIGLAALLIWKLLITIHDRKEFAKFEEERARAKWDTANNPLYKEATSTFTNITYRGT

Binder	FX activation: response with resting platelets relative to activated platelets [1]	FVII-mediated FXa generation % Activity activated plts (n 1) [2]	FVIIa-mediated FXa generation % Activity activated plts (n 1) [2]	FVII-mediated FXa generation % Activity lipidated TLT-1 [6]	FVIIa-mediated FXa generation % Activity lipidated TLT-1 [6]	FVII-mediated FXa generation % Activity activated plts (n 1) [7]	FVIIa-mediated FXa generation % Activity activated plts (n 1) [7]	other results
Factor VIIa (FVIIa) (protein) ANAFLEELRPGSLERECKEEQCSFEEAREIFKDAERTKLFWISYSDGDQCASSPCQNGGSCKDQLQSYICFCLPAFEGRNCETHKDDQLICVNENGGCEQYCSDHTGTKRSCRCHEGYSLLADGVSCTPTVEYPCGKIPILEKRNASKPQGRIVGGKVCPKGECPWQVLLLVNGAQLCGGTLINTIWVVSAAHCFDKIKNWRNLIAVLGEHDLSEHDGDEQSRRVAQVIIPSTYVPGTTNHDIALLRLHQPVVLTDHVVPLCLPERTFSERTLAFVRFSLVSGWGQLLDRGATALELMVLNVPRLMTQDCLQQSRKVGDSPNITEYMFCAGYSDGSKDSCKGDSGGPHATHYRGTWYLTGIVSWGQGCATVGHFGVYTRVSQYIEWLQKLMRSEPRPGVLLRAPFP								FVIIa amidolytic activity (chromogenic substrate S2288, A405) [3]: stimulate FVIIa amidolytic activity in a concentration dependent manner indistinguishable from that induced by hTF.1-219; FVIIa amidolytic activity (chromogenic substrate S2288, A405) [4]: Binding of hTF.1-219 to FVIIa increases the FVIIa catalytic activity; FVIIa amidolytic activity (chromogenic substrate S2288, A405) [5]: similarly stimulate FVIIa activity in a concentration dependent manner identical to that of hTF.1-219
Fab 0012-LC-L8-TF;VH-CH1-HPC4 (protein) light chain-linker-TF: DVVMTQTPLSLPVSLGDQASISCRSSQSLVHRNGNTYFHWCLQKPGQSPKLLIYKVSNRFSGVPDRFSGSGSGTDFTLKISRVEAEDLGVYFCSQSTHVPYTFGGGTKLEIKRTVAAPSVFIFPPSDEQLKSGTASVVCLLNNFYPREAKVQWKVDNALQSGNSQESVTEQDSKDSTYSLSSTLTLSKADYEKHKVYACEVTHQGLSSPVTKSFNRGECGGGGSGGGGSGGGGSGGGGSGSGGGGSGGGGSGGGGSSGTTNTVAAYNLTWKSTNFKTILEWEPKPVNQVYTVQISTKSGDWKSKCFYTTDTECDLTDEIVKDVKQTYLARVFSYPAGNVESTGSAGEPLYENSPEFTPYLETNLGQPTIQSFEQVGTKVNVTVEDERTLVRRNNTFLSLRDVFGKDLIYTLYYWKSSSSGKKTAKTNTNEFLIDVDKGENYCFSVQAVIPSRTVNRKSTDSPVECMGQEKGEFRE VH-CH1-HPC4: EVKLLESGGGLVQPGGSLKLSCAASGFDFSRYWMTWVRQAPGKGLEWIGEINPDSSTINYTPSLKDKFIISRDNAKNTLYLQMSEVRSEDTALYYCASGVFTSWGQGTLVTVSAASTKGPSVFPLAPCSRSTSESTAALGCLVKDYFPEPVTVSWNSGALTSGVHTFPAVLQSSGLYSLSSVVTVPSSSLGTKTYTCNVDHKPSNTKVDKRVESKEDQVDPRLIDGK				94%	98%	86%	81%	
Fab 0012-LC-L9-TF;VH-CH1-HPC4 (protein) light chain-linker-TF: DVVMTQTPLSLPVSLGDQASISCRSSQSLVHRNGNTYFHWCLQKPGQSPKLLIYKVSNRFSGVPDRFSGSGSGTDFTLKISRVEAEDLGVYFCSQSTHVPYTFGGGTKLEIKRTVAAPSVFIFPPSDEQLKSGTASVVCLLNNFYPREAKVQWKVDNALQSGNSQESVTEQDSKDSTYSLSSTLTLSKADYEKHKVYACEVTHQGLSSPVTKSFNRGECGGGGSGGGGSGGGGSGGGGSGGGGSGSGGGGSGGGGSGGGGSSGTTNTVAAYNLTWKSTNFKTILEWEPKPVNQVYTVQISTKSGDWKSKCFYTTDTECDLTDEIVKDVKQTYLARVFSYPAGNVESTGSAGEPLYENSPEFTPYLETNLGQPTIQSFEQVGTKVNVTVEDERTLVRRNNTFLSLRDVFGKDLIYTLYYWKSSSSGKKTAKTNTNEFLIDVDKGENYCFSVQAVIPSRTVNRKSTDSPVECMGQEKGEFRE VH-CH1-HPC4: EVKLLESGGGLVQPGGSLKLSCAASGFDFSRYWMTWVRQAPGKGLEWIGEINPDSSTINYTPSLKDKFIISRDNAKNTLYLQMSEVRSEDTALYYCASGVFTSWGQGTLVTVSAASTKGPSVFPLAPCSRSTSESTAALGCLVKDYFPEPVTVSWNSGALTSGVHTFPAVLQSSGLYSLSSVVTVPSSSLGTKTYTCNVDHKPSNTKVDKRVESKEDQVDPRLIDGK				88%	95%	80%	76%	

Now from value to binder, other results behind:

FX activation: response with resting platelets relative to activated platelets [1]	FVII-mediated FXa generation % Activity activated plts (n 1) [2]	FVIIa-mediated FXa generation % Activity activated plts (n 1) [2]	FVII-mediated FXa generation % Activity lipidated TLT-1 [6]	FVIIa-mediated FXa generation % Activity lipidated TLT-1 [6]	FVII-mediated FXa generation % Activity activated plts (n 1) [7]	FVIIa-mediated FXa generation % Activity activated plts (n 1) [7]	Binder	other results
~20 % of the response with activated platelets	218%	164%					Fab AP-3-LC-L4a-hTF.1-219; VH-CH1-HPC4 (other) light: DIVMTQAAPSVPVTPGESVSISCRSSRSLLHSNGNTYLCWFLQRPGQSPQLLIYRMSNLASGVPDRFSGSGSGTAFTLRISRVEAEDVGVYYCMQHLEYPFTFGSGTKLEIKRTVAAPSVFIFPPSDEQLKSGTASVVCLLNNFYPREAKVQWKVDNALQSGNSQESVTEQDSKDSTYSLSSTLTLSKADYEKHKVYACEVTHQGLSSPVTKSFNRGECGSGGGGSGGGGSGGGGSSGTTNTVAAYNLTWKSTNFKTILEWEPKPVNQVYTVQISTKSGDWKSKCFYTTDTECDLTDEIVKDVKQTYLARVFSYPAGNVESTGSAGEPLYENSPEFTPYLETNLGQPTIQSFEQVGTKVNVTVEDERTLVRRNNTFLSLRDVFGKDLIYTLYYWKSSSSGKKTAKTNTNEFLIDVDKGENYCFSVQAVIPSRTVNRKSTDSPVECMGQEKGEFRE heavy: QVQLQQSGAELVRPGTSVKISCKASGYTFTNYWLGWVKQRPGHGLEWIGDIYPGGGYNKYNENFKGKATLTADTSSSTAYMQLSSLTSEDSAVYFCAREYGNYDYAMDSWGQGTSVTVSSASTKGPSVFPLAPCSRSTSESTAALGCLVKDYFPEPVTVSWNSGALTSGVHTFPAVLQSSGLYSLSSVVTVPSSSLGTKTYTCNVDHKPSNTKVDKRVESKEDQVDPRLIDGK	
~20 % of the response with activated platelets	215%	143%					Fab AP-3-LC.C34S-L4a-hTF.1-219; VH-CH1-HPC4 (other) light: DIVMTQAAPSVPVTPGESVSISCRSSRSLLHSNGNTYLSWFLQRPGQSPQLLIYRMSNLASGVPDRFSGSGSGTAFTLRISRVEAEDVGVYYCMQHLEYPFTFGSGTKLEIKRTVAAPSVFIFPPSDEQLKSGTASVVCLLNNFYPREAKVQWKVDNALQSGNSQESVTEQDSKDSTYSLSSTLTLSKADYEKHKVYACEVTHQGLSSPVTKSFNRGECGSGGGGSGGGGSGGGGSSGTTNTVAAYNLTWKSTNFKTILEWEPKPVNQVYTVQISTKSGDWKSKCFYTTDTECDLTDEIVKDVKQTYLARVFSYPAGNVESTGSAGEPLYENSPEFTPYLETNLGQPTIQSFEQVGTKVNVTVEDERTLVRRNNTFLSLRDVFGKDLIYTLYYWKSSSSGKKTAKTNTNEFLIDVDKGENYCFSVQAVIPSRTVNRKSTDSPVECMGQEKGEFRE heavy: QVQLQQSGAELVRPGTSVKISCKASGYTFTNYWLGWVKQRPGHGLEWIGDIYPGGGYNKYNENFKGKATLTADTSSSTAYMQLSSLTSEDSAVYFCAREYGNYDYAMDSWGQGTSVTVSSASTKGPSVFPLAPCSRSTSESTAALGCLVKDYFPEPVTVSWNSGALTSGVHTFPAVLQSSGLYSLSSVVTVPSSSLGTKTYTCNVDHKPSNTKVDKRVESKEDQVDPRLIDGK	
